Results published in US20250206828A1, “ANTI-ADENOSINE RECEPTOR (A2aR) ANTIBODIES AND THE USE THEREOF” (Adept Therapeutics Inc., priority 2022, published 2025).

Molecular target: T1, human adenosine A2A receptor (A2aR) (human, UniProt P29274 1-412)
T1 construct: Assays used HEK293 cells stably overexpressing human A2aR (BPS Bioscience 79381), human A2aR-expressing CHO cells, or endogenous A2aR on human PBMC; also called human A2aR; hA2aR
Experiment: flow cytometry, HEK293-hA2aR cells, supernatant 1 ug/ml

T1 sequence (P29274 whole entry): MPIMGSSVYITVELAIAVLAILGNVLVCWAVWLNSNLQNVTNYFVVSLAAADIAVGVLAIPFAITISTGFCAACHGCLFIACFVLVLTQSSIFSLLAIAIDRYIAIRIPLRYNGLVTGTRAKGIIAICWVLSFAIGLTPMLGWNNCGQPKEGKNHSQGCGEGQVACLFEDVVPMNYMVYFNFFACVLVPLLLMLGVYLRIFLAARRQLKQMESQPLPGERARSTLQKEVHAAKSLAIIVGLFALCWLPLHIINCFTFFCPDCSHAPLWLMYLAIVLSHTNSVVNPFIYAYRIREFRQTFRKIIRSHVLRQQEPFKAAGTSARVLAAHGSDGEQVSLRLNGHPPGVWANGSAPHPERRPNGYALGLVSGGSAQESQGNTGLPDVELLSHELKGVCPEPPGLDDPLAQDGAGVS

Row | Binder | MFI [MFI]
1 | Hu3F6-H1/Hu3F6-L2 (antibody, human IgG1, V domains shown, Human IgG1 FES (L234F, L235E, P331S) and human Ig kappa constant domains) VH: QVQLVQSGAEVKKPGASVKVSCKASGFAFTSYWMNWVRQAPGQGLEWMGRIDPSDSEAHYHHKFWGRVTMTRDTSTSTVYMELSSLRSEDTAVYYCLRSLYGKGDYWGHGTTVTVSS VL: DVVMTQSPLSLPVTLGQPASISCRSSQSLVHRNGNTYLEWYQQRPGQSPRRLIYKVSNRFSGVPDRFSGSGSGTDFTLKISRVEAEDVGVYYCYQGSHVPLTFGGGTKVEIK | 14
2 | Hu3F6-H1/Hu3F6-L3 (antibody, human IgG1, V domains shown, Human IgG1 FES (L234F, L235E, P331S) and human Ig kappa constant domains) VH: QVQLVQSGAEVKKPGASVKVSCKASGFAFTSYWMNWVRQAPGQGLEWMGRIDPSDSEAHYHHKFWGRVTMTRDTSTSTVYMELSSLRSEDTAVYYCLRSLYGKGDYWGHGTTVTVSS VL: DVVMTQSPLSLPVTLGQPASISCRSSQSLVHRNGNTYLEWYQQRPGQSPRLLIYKVSNRFSGVPDRFSGSGSGTDFTLKISRVEAEDVGVYYCYQGSHVPLTFGGGTKVEIK | 1600
3 | Hu3F6-H1/Hu3F6-L4 (antibody, human IgG1, V domains shown, Human IgG1 FES (L234F, L235E, P331S) and human Ig kappa constant domains) VH: QVQLVQSGAEVKKPGASVKVSCKASGFAFTSYWMNWVRQAPGQGLEWMGRIDPSDSEAHYHHKFWGRVTMTRDTSTSTVYMELSSLRSEDTAVYYCLRSLYGKGDYWGHGTTVTVSS VL: DIVMTQTPLSLSVTPGQPASISCRSSQSLVHRNGNTYLEWYLQKPGQSPQLLIYKVSNRFSGVPDRFSGSGSGTDFTLKISRVEAEDVGVYYCYQGSHVPLTFGGGTKVEIK | 1320
4 | Hu3F6-H1/Hu3F6-L5 (antibody, human IgG1, V domains shown, Human IgG1 FES (L234F, L235E, P331S) and human Ig kappa constant domains) VH: QVQLVQSGAEVKKPGASVKVSCKASGFAFTSYWMNWVRQAPGQGLEWMGRIDPSDSEAHYHHKFWGRVTMTRDTSTSTVYMELSSLRSEDTAVYYCLRSLYGKGDYWGHGTTVTVSS VL: DVVMTQTPLSLSVTPGQPASISCRSSQSLVHRNGNTYLEWYLQKPGQSPQLLIYKVSNRFSGVPDRFSGSGSGTDFTLKISRVEAEDVGVYYCYQGSHVPLTFGGGTKVEIK | 1500
5 | Hu3F6-H1/Hu3F6-L6 (antibody, human IgG1, V domains shown, Human IgG1 FES (L234F, L235E, P331S) and human Ig kappa constant domains) VH: QVQLVQSGAEVKKPGASVKVSCKASGFAFTSYWMNWVRQAPGQGLEWMGRIDPSDSEAHYHHKFWGRVTMTRDTSTSTVYMELSSLRSEDTAVYYCLRSLYGKGDYWGHGTTVTVSS VL: DIVMTQTPPSLPVNPGEPASISCRSSQSLVHRNGNTYLEWYLQKPGQSPQLLIYKVSNRFSGVPDRFSGSGSGSDFTLKISWVEAEDVGVYYCYQGSHVPLTFGGGTKVEIK | 313
6 | Hu3F6-H1/Hu3F6-L7 (antibody, human IgG1, V domains shown, Human IgG1 FES (L234F, L235E, P331S) and human Ig kappa constant domains) VH: QVQLVQSGAEVKKPGASVKVSCKASGFAFTSYWMNWVRQAPGQGLEWMGRIDPSDSEAHYHHKFWGRVTMTRDTSTSTVYMELSSLRSEDTAVYYCLRSLYGKGDYWGHGTTVTVSS VL: DVVMTQTPPSLPVNPGEPASISCRSSQSLVHRNGNTYLEWYLQKPGQSPQLLIYKVSNRFSGVPDRFSGSGSGSDFTLKISWVEAEDVGVYYCYQGSHVPLTFGGGTKVEIK | 290
7 | Hu3F6-H2/Hu3F6-L1 (antibody, human IgG1, V domains shown, Human IgG1 FES (L234F, L235E, P331S) and human Ig kappa constant domains) VH: EVQLVQSGAEVKKPGASVKVSCKTSGFAFTSYWMNWVRQAPGQGLEWMGRIDPSDSEAHYHHKFWGRVTMTVDTSTSTVYMELSSLRSEDTAVYYCLRSLYGKGDYWGHGTTVTVSS VL: DVVMTQSPLSLPVTLGQPASISCRSSQSLVHRNGNTYLEWFQQRPGQSPRRLIYKVSNRFSGVPDRFSGSGSGTDFTLKISRVEAEDVGVYYCYQGSHVPLTFGGGTKVEIK | 13
8 | Hu3F6-H2/Hu3F6-L6 (antibody, human IgG1, V domains shown, Human IgG1 FES (L234F, L235E, P331S) and human Ig kappa constant domains) VH: EVQLVQSGAEVKKPGASVKVSCKTSGFAFTSYWMNWVRQAPGQGLEWMGRIDPSDSEAHYHHKFWGRVTMTVDTSTSTVYMELSSLRSEDTAVYYCLRSLYGKGDYWGHGTTVTVSS VL: DIVMTQTPPSLPVNPGEPASISCRSSQSLVHRNGNTYLEWYLQKPGQSPQLLIYKVSNRFSGVPDRFSGSGSGSDFTLKISWVEAEDVGVYYCYQGSHVPLTFGGGTKVEIK | 1580
9 | Hu3F6-H2/Hu3F6-L7 (antibody, human IgG1, V domains shown, Human IgG1 FES (L234F, L235E, P331S) and human Ig kappa constant domains) VH: EVQLVQSGAEVKKPGASVKVSCKTSGFAFTSYWMNWVRQAPGQGLEWMGRIDPSDSEAHYHHKFWGRVTMTVDTSTSTVYMELSSLRSEDTAVYYCLRSLYGKGDYWGHGTTVTVSS VL: DVVMTQTPPSLPVNPGEPASISCRSSQSLVHRNGNTYLEWYLQKPGQSPQLLIYKVSNRFSGVPDRFSGSGSGSDFTLKISWVEAEDVGVYYCYQGSHVPLTFGGGTKVEIK | 1180
10 | Hu3F6-H3/Hu3F6-L6 (antibody, human IgG1, V domains shown, Human IgG1 FES (L234F, L235E, P331S) and human Ig kappa constant domains) VH: EVQLVQSGAEVKKPGASVKVSCKTSGFAFTSYWMNWVRQAPGQGLEWIGRIDPSDSEAHYHHKFWGRATLTVDTSSSTVYMELSSLRSEDTAVYYCLRSLYGKGDYWGHGTTVTVSS VL: DIVMTQTPPSLPVNPGEPASISCRSSQSLVHRNGNTYLEWYLQKPGQSPQLLIYKVSNRFSGVPDRFSGSGSGSDFTLKISWVEAEDVGVYYCYQGSHVPLTFGGGTKVEIK | 1660
11 | Hu3F6-H3/Hu3F6-L7 (antibody, human IgG1, V domains shown, Human IgG1 FES (L234F, L235E, P331S) and human Ig kappa constant domains) VH: EVQLVQSGAEVKKPGASVKVSCKTSGFAFTSYWMNWVRQAPGQGLEWIGRIDPSDSEAHYHHKFWGRATLTVDTSSSTVYMELSSLRSEDTAVYYCLRSLYGKGDYWGHGTTVTVSS VL: DVVMTQTPPSLPVNPGEPASISCRSSQSLVHRNGNTYLEWYLQKPGQSPQLLIYKVSNRFSGVPDRFSGSGSGSDFTLKISWVEAEDVGVYYCYQGSHVPLTFGGGTKVEIK | 1510
